Experimental data as given in the supplement of paper PMC9112550, “Optimization of the antimicrobial peptide Bac7 by deep mutational scanning” (BMC Biology, 2022).

Each sequence was assayed on Escherichia coli TOP10 (assay: shrunken log2 fold change of peptide-encoding DNA abundance (4.5 h post-induction vs induction); higher = less antimicrobial activity (less host growth inhibition)). Conditions: time post-induction: 4.5 h; library: site-saturation at positions 5, 18, 19, 20.
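Also: peptides expressed intracellularly from a pBAD plasmid library in pooled LB shake-flask culture, induced with 0.3% L-arabinose, DNA abundance read by NGS, three biological replicates, DESeq2 with apeglm shrinkage.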

Sequence	shrunken log2 fold change
RRIRQRPPRLPRPRPRPNQDPRP	-0.0715
RRIRQRPPRLPRPRPRPNQKPRP	-0.0966
RRIRQRPPRLPRPRPRPNRIPRP	-0.0402
RRIRQRPPRLPRPRPRPNRPPRP	-0.056
RRIRQRPPRLPRPRPRPNRWPRP	-0.0161
RRIRQRPPRLPRPRPRPNSDPRP	-0.594
RRIRQRPPRLPRPRPRPNSEPRP	-0.206
RRIRQRPPRLPRPRPRPNSNPRP	-0.648
RRIRQRPPRLPRPRPRPNTFPRP	-0.666
RRIRQRPPRLPRPRPRPNTTPRP	0.15
RRIRQRPPRLPRPRPRPNWFPRP	-0.151
RRIRQRPPRLPRPRPRPNWGPRP	0.105
RRIRQRPPRLPRPRPRPNWTPRP	-0.00963
RRIRQRPPRLPRPRPRPPADPRP	0.362
RRIRQRPPRLPRPRPRPPAWPRP	0.0654
RRIRQRPPRLPRPRPRPPCLPRP	-0.192
RRIRQRPPRLPRPRPRPPCYPRP	-0.0902
RRIRQRPPRLPRPRPRPPDHPRP	-0.27
RRIRQRPPRLPRPRPRPPDIPRP	-0.0497
RRIRQRPPRLPRPRPRPPELPRP	0.109
RRIRQRPPRLPRPRPRPPFGPRP	0.219
RRIRQRPPRLPRPRPRPPFMPRP	0.213
RRIRQRPPRLPRPRPRPPIEPRP	-0.09
RRIRQRPPRLPRPRPRPPKTPRP	0.113
RRIRQRPPRLPRPRPRPPNAPRP	0.285

Sequence	shrunken log2 fold change
RRIRQRPPRLPRPRPRPPNFPRP	-0.0994
RRIRQRPPRLPRPRPRPPNSPRP	-0.0968
RRIRQRPPRLPRPRPRPPNTPRP	-0.0954
RRIRQRPPRLPRPRPRPPPSPRP	0.731
RRIRQRPPRLPRPRPRPPRFPRP	1.51
RRIRQRPPRLPRPRPRPPRGPRP	2.1
RRIRQRPPRLPRPRPRPPRVPRP	0.422
RRIRQRPPRLPRPRPRPPTFPRP	0.0128
RRIRQRPPRLPRPRPRPPTIPRP	2.14
RRIRQRPPRLPRPRPRPPWTPRP	0.0238
RRIRQRPPRLPRPRPRPPYYPRP	-0.829
RRIRQRPPRLPRPRPRPQAAPRP	0.0499
RRIRQRPPRLPRPRPRPQAPPRP	0.233
RRIRQRPPRLPRPRPRPQDFPRP	-0.372
RRIRQRPPRLPRPRPRPQDWPRP	-0.146
RRIRQRPPRLPRPRPRPQFVPRP	-0.173
RRIRQRPPRLPRPRPRPQIAPRP	-0.133
RRIRQRPPRLPRPRPRPQIQPRP	-0.411
RRIRQRPPRLPRPRPRPQLIPRP	-0.237
RRIRQRPPRLPRPRPRPQMRPRP	-0.0736
RRIRQRPPRLPRPRPRPQPQPRP	0.0436
RRIRQRPPRLPRPRPRPQPWPRP	0.141
RRIRQRPPRLPRPRPRPQQAPRP	-0.0512
RRIRQRPPRLPRPRPRPQQCPRP	-0.132
RRIRQRPPRLPRPRPRPQQNPRP	-0.0678

Sequence	shrunken log2 fold change
RRIRQRPPRLPRPRPRPQSEPRP	-0.173
RRIRQRPPRLPRPRPRPQSPPRP	-0.0301
RRIRQRPPRLPRPRPRPQSTPRP	-0.631
RRIRQRPPRLPRPRPRPQTGPRP	-0.137
RRIRQRPPRLPRPRPRPQTQPRP	0.025
RRIRQRPPRLPRPRPRPQVPPRP	-0.148
RRIRQRPPRLPRPRPRPQWMPRP	-0.494
RRIRQRPPRLPRPRPRPQYCPRP	0.0332
RRIRQRPPRLPRPRPRPQYEPRP	-0.349
RRIRQRPPRLPRPRPRPRAAPRP	0.506
RRIRQRPPRLPRPRPRPRAKPRP	0.0777
RRIRQRPPRLPRPRPRPRAPPRP	0.749
RRIRQRPPRLPRPRPRPRASPRP	0.392
RRIRQRPPRLPRPRPRPRAVPRP	2.78
RRIRQRPPRLPRPRPRPRCPPRP	0.313
RRIRQRPPRLPRPRPRPRCSPRP	-0.232
RRIRQRPPRLPRPRPRPREAPRP	0.384
RRIRQRPPRLPRPRPRPRERPRP	0.553
RRIRQRPPRLPRPRPRPRFMPRP	0.137
RRIRQRPPRLPRPRPRPRGCPRP	0.199
RRIRQRPPRLPRPRPRPRGHPRP	0.342
RRIRQRPPRLPRPRPRPRHDPRP	0.0818
RRIRQRPPRLPRPRPRPRHFPRP	0.0257
RRIRQRPPRLPRPRPRPRICPRP	-0.083
RRIRQRPPRLPRPRPRPRIQPRP	-0.0402
